# From the nanobody polyreactivity screen of Harvey et al. (2022)
# Test: yeast display, Sf9 membrane polyspecificity reagent, FACS + sequencing; frameworks hold sequencing errors
# Procedure, shortened: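 In a synthetic yeast display library (Saccharomyces cerevisiae BJ5465), nanobody expression was induced with galactose for 36–48 hours. FACS gates were set low and high (top ~1%) using anti-HA fluorescence for expression and streptavidin fluorescence for binding of the Sf9 membrane reagent. Each polyreactivity label is drawn from the gate of origin.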
row,Sequence,polyreactivity (PSR sort gate)
1,QVQLVESGGGLVQAGGSLRLSCAASASIFADNTMGWYRQAPGKERELVAAITSSGRTYYADSVKGRFTISLDNAKNTVYLQLNSLKPEDTAVYYCAAVIYFHDYSPYYYWGQGTQVTVSS,high polyreactivity
2,QVQLVESGGGLVQAGGSLRLSCAASGIIFPGYAMGWYRQAPGKVRELVAAISSGGDTYYADSVKGLFTISRDNAKNTVYLQMNSLNPEDTAVYYCTAAQLSSDRTSTYGYWGQGTKVTVSS,low polyreactivity
3,QVQLVDSGGGLVQAGGSLRLSSAASGRTFRYYTMGWYRQAPGKERELVAGISRSGANTYYADSVKGRFTISRDNAKNSVYLQMNSLKPEDTAVYYCNAVYGTYDWGQGTQVTVSS,high polyreactivity
4,QVQLVESGGGLVQAGGSLRLSCAASGYTFGTYDMGWYRQAPGKERELVAAISIGGSTNYADSVKGRFTISRDNAKNTVYLQMNSLKREDTAVYYCAAEVNVGTLLLSVIVEDGDYWGQGTQVTVSS,low polyreactivity
5,QVQLVESGGGLVQAGGSLRLSCAASGSIFQRNTIGWYIQAPGKERELVAAISRSGGSTYYADSVKGLFTISRDNAKITVYLQMKSLKPEDTEVYYCAVSGGTSRRYYYWGQGTKVTVSS,high polyreactivity
6,QVQLVESGGGLVQAGGSLSLSCAASGFTFFYNAMGWYRQAPGKERELVASITVSTSGTDYADSVKGRFTISLDNAKNTVYLQMNSLKPEDTAVYYCATDQVLVYSDLQDTAYYWGQGTQVTVSS,low polyreactivity
7,QVQLEESGGGLVQAGGSLRLTGAASGSTVVSYAMGWYRQERGKEWELVAAISSSSGRTRYADSVKGSFTISRDNAKNTVYLQMNSLKPEDTAVYYCAARRQSTRPGFYYWGQGTQVTVSS,high polyreactivity
8,QVQLVESGGSLVQAGGSLRLSCSASGFIFYTNAMGWYRQAPGKERELVAAISSRGTRTYYADSVKGRFTISRDNAKNSVYLQLNSLKPEDTAVYYCAVRTRYLGLEYYYWGQGSQVTVSS,high polyreactivity
9,QVQLVESGGGLVQAGGSLRLICAASGFTFSWYVMGWYRQAPGKERELVATITNRGGSTYYADSVKGRFTISRDTAKNTVYLQMNSLKPEDTAVYYCAARKKGSRVGYDYCGQGTQVTVSS,high polyreactivity
10,QVQLVESGGGLVQAGGSLRLSCAASGLIFWYYAMGWYRQAPGKERELVAVITRSDASTYYADSVKGRFTISRDNAKNTVYVQMNSLKPEDTAVYYCAAYIRYGYSPWGYDYWGQGTQVSVSS,low polyreactivity
11,QVQLVESGGGLVQAGGSLRLSCAASGSIFGGYDMGWYRQAPGKESELVASISGSSSTYYADSVKGRFTISRDNAKNTVYFQMNSLKPEDTAVYYCAVDYHQAWPSADYWFEYDYWGQGTQVTVSS,low polyreactivity
12,QVQLVESAVGLVQAGGSLRLSCAASGRIFYFNAMGWYRQAPGKERELVAAISSSGTTYYADSVKGRFTISRDNAKNTVYLQMNSLKPEDTAVYYCAAGYYGHDPRNRYRYNYWGQGTQVTVSS,high polyreactivity
13,QVQLQESGGGLVQAVGSLRLSCAASGNISDYYDMGWYRQAPGKERKIVAGIDFGAITNYADSVKGRFTISRDNAKNTEYLQMSSLKPEDTAVYYCAAGVYDWYAYDYWGQGTQVTVSS,high polyreactivity
14,QVQLVESVGGLVQAGGSLRLSCAASGRMFAKYAMGWYRQAPGKERELVPISSSVGRTYYADSVKGRFTISRDNAKNTVSLHMHSLKPEDTAVYYCNAKPRWYVPYDYSGQGTQVTVSS,high polyreactivity
15,QVQLVESGGGLVQAGGSLRLSCAASGFIFYLNAMGWYRQAPGKERELVAAISGRGGRTYYADSVKGRFTISRDNAKNTVYLQMNSLKPEDTAVYYCAAQYVPSRYGYWGQGTQVTVSS,high polyreactivity
16,QVQLVESGVGLVQAGGSLRLSCAASGRTLGVYTMGWYRQAPGKERELVAAITTGGSTKYADSVKGRFTISRDNAKNTVYLQMNSLKPEDTAVYYCATDLVFDKRYWYDYWGQGTQVTVSS,low polyreactivity
17,QDQLVESGGGLVQAGGSHRLSCAASGFIIGYYAMGWYRQAPGKEMELVASIRRGGSTYYADSVKGRFTISRDNAKNTVYLQMNSLKPEDTAVYYCAAQRSVVGWWSRTSLYGDSDYWGLGTQVTVSS,high polyreactivity
18,QVQLVESGGGLVQAGGSLRLSCAASGFTFGSNAMGWYRQAPGKERELVAAISWSGGRTYYADSVKGRFTISRDNAKNTVYLQMNSLKPEDTAVYYCNKQYVKPWYRGYYYWGQGTQVTVSS,high polyreactivity
19,QVQLVESGGGLVQAGGSLRLSCAASGSTFISYAMGWSRQAPGKERELVAAISSSTGRTYYADSVKGRVTISRDNAKNTVYLQMNSLKPEDTAVYYCNAVHRYERDYWGQGTQVTVSS,high polyreactivity
20,QVQLVESGGGLVQAGGSVRLSCAASGRIFGIYAMGWYRQAPGKERELVAAITWIGGRTYYADSVKGRFTISRDNAKNTVYLQMNSLKPEDTAVYYCNAVYTQRFATYRRYDYWGQGTQVTVSS,high polyreactivity
21,QVQLVESGGGLVQAGGSLRLSCAASGSIFRKYAMGWYRQAPGKERELVAAITGSGGSTYYADSVKGRFTISRDNAKNTVYLQMNSLKPEDTAVYYCAAPFGWRPLPISKVTSDYWGQGTQVTVSS,high polyreactivity
22,QVHLVESGGGLVQAGGSLRLSCAASGNIITSYAMGWYRQAPGKERELVAAISSGGTTHYADSVKGRFTISRDNAKNTVYLQMNSLKPEDTAVYYCAARQVSYYKANDSWVRSEYDYWGQGTQVSVSS,low polyreactivity

row,Sequence,polyreactivity (PSR sort gate)
1,QVQLVDSGGGLVQAGGSLRLSCAASGSTFDPYTMGWYRQAPGTERELVAGMTGGGSTYYADCVKGRFTISRDNAKNTVYLQMNSLKPEDTAVYYCARDYSYYKGPDGHYWGQGTQVTVSS,low polyreactivity
2,QVQLVESGGGLVQAGGSIRLSCAASGFTIFLNAMGWYRQAPGKERELVAAITVSGSSTYYADSVKGRFTISRDNAKNTVYLQMNSLKPEETAVYYCNAEIYSPYYTYDYWGQGTQVTVSS,low polyreactivity
3,QVQLVESGAGLVQAGGSLRISCAASASIFAYYVMGRYREAPGKERELVAAITRSGSPYYADSVKGRFTISRDNAKNTVYLQMNSLKPEDTAVYYCAAPTDFLFWEFDYWGQGTQVTVSS,low polyreactivity
4,QVQLVESGGGLVQAGGSLRLSCAASGFTFIYNAMGWYRQAPGKERELVAAISRGASTNYADSVKGRFTISRDNAKNTVYLQMNSLKPEDTAVYYCAKRTTRLAPYDYWGQGTQVTVSS,high polyreactivity
5,QVQLVESGGGLVQAGGSLRLSCAASGFTFLVYAMGWYRQAPGKERELVAAISRRGCSTYYADSVKGRFTISRDNAKNTVYLQMNSLKPEDTSVYYCNKYRQQGWEFDYWGQGTQVTVSS,high polyreactivity
6,QVQLVESGGGLVQAGGSLRLSCAASGFTFHKNAMGWYRQAPGKERELVAAITNRGGSTYYADSVKGRFTISRDNAKNTVYLQMNSLKPEDTAVYYCAAELRPYITYVGPRKKFYYWGQGTQVTVSS,high polyreactivity
7,QVQLVESGGGLVQAGGSLRLSCAASGRTFLALGWYRPAPGKERELVAAISRTNYADSVKGRVTISRDNAKNTVYLQMHSLKPEETAVYYCAKEYYSYEGYLGLSYVRRYDYWGQGTQVTVSS,low polyreactivity
8,QVQLVESGGGLVQAGGSIRLSCAASGSTFRYYTMGWYRQAPGKERELVATITRDGRTYYADSVKGRFTISRDNAKNTVYLQMYSLKPEDTAVYYCNVRRAFSGWRGYDYWGQGTQVTVSS,high polyreactivity
9,QVQLVESGGGLVHAGGSLRLSCAASGFIFYYYTMGWYRQAPGKEREFVAAISSSGTITYYADSVKGRFTISRDNAKNTVYLQMNSLKPEDTAVYYCNAELYYPYEFWRFSGYDYWGQGTQVTVSS,low polyreactivity
10,QVQLVESGGGLVQAGGSLRLSCAASGSIFTYYAMGWYRQAPGKERELVAGITRGGSTYYAESVKGRFTISRDNAKNTVYLQMNSLKPEDTAVYYCNARWVLFYTGDGQEHDYWGQGTQVTVSS,low polyreactivity
11,QVHLVESGGGLVQAGGSLRLTCAASGIIFRWYAMGWYRQAPGKERELVAAISSGGGRTHYADSVKGRFTISRDNAKNTVYLQMNSLKPEDTAVYYCAAALRGQSSRFDYWGQGTQVTVSS,high polyreactivity
12,QVQLVESGGGLVQAGGSLRLSCAASGRIFYRNAMGGSRQAPGKERELVAAISYSGGSTYYADSVKGRFTISRDNAKNTVYLQMNSLKPEDTAVYYCAAARDRWGNYWGQGTQVTVSS,high polyreactivity
13,QVQLVESGGGLVQAGGSLRLSCAASGSIFNLNAMGWYRQAPGKEREFVAGITYSAGRTYYADSVKGRFTISRDNAKNTVYLQMNSLKPEDTAVYYCAARIYSKFTSYGILDSWGQGTQVTVSS,high polyreactivity
14,QVQLVESGGGLVQAGGSLRLSCAASGLTFQSYAMGRYRQAPVKERELVATISNGSSTYYADSVKGRFTFSRDNAKNTVYLQMNSLKPEDTAVYFCAKDYYYSRNPLYGHDYWGHGTQVTVSS,low polyreactivity
15,QVQLVESGVGLVQAGGSLRLSCAASGFIFDHNAMGWYRQAPGKERELVAAITRSGGSTYYADSVKGRFTISRDNAKNTVYLQMNSLKPEDTAVYYCAADLSYRGATRGDYYWGQGTQVTVSS,low polyreactivity
16,QVQLVESGGGLVQAGGSLRLICAASGFTFYYYAMGWYRQAPGKEWELVAAISRNGVSTYYADSVKGRFTISRDNAKNTVYLQMNSLKPEDTAVYYCASGYGSLHVNYLGQGTQVTVSS,low polyreactivity
17,QVQLVESGGGLVQAGGSLRLSCAASGRTNKSNTLGWYRQEPGKQMELVAAISWRVGSTYYADSVKGRFTISRDNAKNTVYLQMNSLKPEDTAVYYCAARPWGYTVGSNYRYYLYGYWGLGTQVTVSS,high polyreactivity
18,QVQLVESGGGLVQAGGSLRLSCAASGRIFTRNAMGWCRPAPGKERELVAAITYTGANTYYADSVKGRFTISRDNAKNTVYLQMNSLKPEDTAVYYCAADGRVKGWGQGTQVTVSS,high polyreactivity
19,QVQLVESGGGLVQAGGSLRLSCAASGSTFVPNAMGWYRQAPGKEREFVAAIRVSGDNTYYADSVKGRFTISRDNAKNTVYLQMNSLKPEDTGVYYCAATGTVLGSVDYWGQGTQVTVSS,low polyreactivity
20,QVQLVESGGGLVQAGGSLRLSCAASGSTFDYYAMGWYRQAPGKERELVAAISSGGSTNYADSVKGRFTISRDNAKNTVYLQMNSLKPEDTAVYYCAKDHAYTSAPHQYASEYYYWGQGTQVTVSS,low polyreactivity
21,QVHLVESGGGLVQAGGSLRLSCAASGYTFSRNAMGWYRQAPGKERELVASISSRGGSTRYADSVKGRFTISRDNAKNTVYLQMNSLKPEDTAVYYCAVRGLYSPFTYGYWGQGTQVTVSS,high polyreactivity
